The target in experiment [1] is T1, His-StrepTagII-HRV3C-human VWF-CK-HA-tag (human).
T1 construct: it begins with the VWF signal peptide, whose limits were marked only by underlining that is lost in the text, so it was not cut off; The CK domain forms disulfide-linked homodimers (CK dimer); also called recombinant human CK domain; Human CK
T1 chain: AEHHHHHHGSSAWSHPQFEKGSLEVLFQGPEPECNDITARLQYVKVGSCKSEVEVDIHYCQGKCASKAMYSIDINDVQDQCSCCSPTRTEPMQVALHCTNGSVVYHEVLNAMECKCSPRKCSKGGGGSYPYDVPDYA
In words: solution-phase equilibrium binding, free antibody by ELISA; apparent Kd; pH 5.5; mean ± SD, n=2. (In general: ELISA stands for enzyme-linked immunosorbent assay.)
Method: (§1) Following incubation for 30 min at room temperature to establish equilibrium, unbound antibody was quantified by ELISA using the immobilized human CK domain for capture and HRP-conjugated goat anti-human IgG Fc antibody for detection.
(§2) Following a single wash of the plate with 200 μL of wash buffer (TBS containing 0.05% (v/v) Tween-20 and 5 mM CaCl₂), the plate was blocked by incubation with 200 μL blocking buffer (TBS containing 5 mM CaCl₂ and 1% (w/w) BSA) for 1 hour at room temperature. […] Incubation lasted 3 min and was followed by 5-min incubation with 100 μL HRP-conjugated goat anti-human IgG Fc antibody for detection (1 mg/mL stock diluted 1:20,000 in blocking buffer). Before and after addition of a detection antibody, the plate was washed 5 times with 200 μL wash buffer. A chromogenic horseradish peroxidase (HRP) substrate (100 μL) was then added and following color development for 3 min, 100 μL ELISA stop solution were added to quench the reaction. Absorbance was measured at 450 nm with subtraction of the absorbance at 620 nm.
(§3) The standard curve prepared with free antibody was fitted to a Sigmoidal four-parameter logistic (4PL) model.

In experiment [2] the target is T2, human plasma-derived VWF (human, UniProt P04275 764-2813).
T2 construct: multimeric; also called pd-VWF; Human VWF
As to the kind of experiment: solution-phase equilibrium binding, free antibody by ELISA; apparent Kd; pH 7.4; mean ± SD, n=2.
Method: as §1, §2, §3

Experiment [3] concerns the target T1, His-StrepTagII-HRV3C-human VWF-CK-HA-tag. The experiment is described as above.
Method: as §1, §2, §3
Experiment [4] addresses T3, His-StrepTagII-HRV3C-cyno VWF-CK-HA-tag (cynomolgus monkey).
T3 construct: it begins with the VWF signal peptide, whose limits were marked only by underlining that is lost in the text, so it was not cut off; The CK domain forms disulfide-linked homodimers; also called recombinant cyno CK domain; Cyno CK
T3 chain: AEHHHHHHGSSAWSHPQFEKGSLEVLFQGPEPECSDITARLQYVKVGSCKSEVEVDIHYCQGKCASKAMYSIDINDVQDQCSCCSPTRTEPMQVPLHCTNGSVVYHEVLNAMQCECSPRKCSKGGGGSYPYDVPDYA
The description is as above.
Method: as §1, §2, §3

In experiment [5] the target is T4, VWF in human plasma (human, UniProt P04275 764-2813).
T4 construct: Endogenous VWF in donor plasma, not purified; multimeric; also called VWF in plasma; VWF in platelet rich plasma
As to the kind of experiment: VWF:FVIIIB enzyme immunoassay; human plasma (5 donors) 17 h 37 °C with 200 nM antibody; FVIII bound to captured VWF relative to untreated plasma; ligand FVIII.

The target of experiment [6] is T4, VWF in human plasma. As to the kind of experiment: VWF:FVIIIB enzyme immunoassay; human plasma (5 donors) 17 h 37 °C with 600 nM antibody; FVIII bound to captured VWF relative to untreated plasma; ligand FVIII.
In experiment [7] the target is T4, VWF in human plasma. As to the kind of experiment: collagen type III binding ELISA; human plasma (5 donors) 17 h 37 °C with 600 nM antibody; VWF bound to collagen relative to untreated plasma; ligand collagen type III.
Method: Following incubation, collagen binding was determined relative to untreated plasma.
The target in experiment [8] is T4, VWF in human plasma. As to the kind of experiment: flow cytometry, FITC anti-VWF on platelets; human PRP (2 donors), 0.5 mg/ml ristocetin, 600 nM antibody; relative to the same plasma without antibody; receptor platelet gp1b.
Method: PRP was prepared by centrifuging the blood at 250 g for 15 min. […] Sample analysis was performed on a flow cytometer. Using forward (FSC) and sideward (SSC) scatter pattern, a gate was placed on the platelets.
For experiment [9], the target named is T5, His-StrepTagII-HRV3C-cyno VWF-CK-HA-tag (cynomolgus monkey).
T5 construct: also called recombinant cyno CK domain; cyno CK
T5 chain: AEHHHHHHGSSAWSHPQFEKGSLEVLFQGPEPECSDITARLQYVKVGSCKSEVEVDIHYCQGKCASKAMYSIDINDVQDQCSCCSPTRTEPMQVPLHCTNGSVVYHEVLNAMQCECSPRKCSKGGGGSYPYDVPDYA
As to the kind of experiment: solution-phase equilibrium binding, unbound antibody by ELISA.

The target of experiment [10] is T6, human plasma-derived von Willebrand Factor (VWF) (human, UniProt P04275 764-2813).
T6 construct: also called pd-VWF; human plasma-derived VWF
As to the kind of experiment: VWF:FVIIIB enzyme immunoassay, FVIII binding capacity of plasma VWF after incubation with 200 or 600 nM antibody; FVIII as the partner tested.

B1: Lib1_P1_G3 OA (antibody, human IgG4 S228P, kappa, F234A L235A)
heavy: QVQLVQSGAEVKKPGASVKVSCKVSGYTSRQYIHWVRQAPGKGLEWMGWVTPIFGTTNYAQKFQGRVTMTEDTSTDTAYMELSSLKSEDTAVYYCAREWTGTTAFDIWGQGTLVTVSSASTKGPSVFPLAPCSRSTSESTAALGCLVKDYFPEPVTVSWNSGALTSGVHTFPAVLQSSGLYSLSSVVTVPSSSLGTKTYTCNVDHKPSNTKVDKRVESKYGPPCPPCPAPEAAGGPSVFLFPPKPKDTLMISRTPEVTCVVVDVSQEDPEVQFNWYVDGVEVHNAKTKPREEQFNSTYRVVSVLTVLHQDWLNGKEYKCKVSNKGLPSSIEKTISKAKGQPREPQVYTLPPSQEEMTKNQVSLSCAVKGFYPSDIAVEWESNGQPENNYKTTPPVLDSDGSFFLVSRLTVDKSRWQEGNVFSCSVMHEALHNHYTQKSLSLSLG
chain: ESKYGPPCPPCPAPEAAGGPSVFLFPPKPKDTLMISRTPEVTCVVVDVSQEDPEVQFNWYVDGVEVHNAKTKPREEQFNSTYRVVSVLTVLHQDWLNGKEYKCKVSNKGLPSSIEKTISKAKGQPREPQVYTLPPSQEEMTKNQVSLWCLVKGFYPSDIAVEWESNGQPENNYKTTPPVLDSDGSFFLYSRLTVDKSRWQEGNVFSCSVMHEALHNHYTQKSLSLSLG
light: DIQMTQSPSSVSASVGDRVTITCRASQDIGHYLAWYQQKPGKAPKLLIYAASNRASGVPSRFSGSGSGTDFTLTISSLQPEDFANYYCQQGYSAPYGFGGGTKVEIKRTVAAPSVFIFPPSDEQLKSGTASVVCLLNNFYPREAKVQWKVDNALQSGNSQESVTEQDSKDSTYSLSSTLTLSKADYEKHKVYACEVTHQGLSSPVTKSFNRGEC
In the case of B1, the Kd in [1] was 32.3 nM; in experiment [2], 5.3 nM; in experiment [3], 4.3 nM; in [4], 11 nM. Besides, the “VWF:FVIII level (% of control)” value in experiment [5] is 84.5 % of control; in [6] it was 85.8 % of control. Besides, the “Collagen binding (% control)” value in experiment [7] worked out at 108 % control. Besides, the “Platelet binding (% control)” value in [8] turned out to be 101 % control.

B2: 399_Lib1 OA (antibody, human IgG4 S228P, kappa, F234A L235A)
heavy: QVQLVQSGAEVKKPGASVKVSCKVSGITFTSDYIHWVRQAPGKGLEWMGGMNPYSNKAIYAQKFQGRVTMTEDTSTDTAYMELSSLKSEDTAVYYCATGGLRIAARTSYFDYWGQGTLVTVSSASTKGPSVFPLAPCSRSTSESTAALGCLVKDYFPEPVTVSWNSGALTSGVHTFPAVLQSSGLYSLSSVVTVPSSSLGTKTYTCNVDHKPSNTKVDKRVESKYGPPCPPCPAPEAAGGPSVFLFPPKPKDTLMISRTPEVTCVVVDVSQEDPEVQFNWYVDGVEVHNAKTKPREEQFNSTYRVVSVLTVLHQDWLNGKEYKCKVSNKGLPSSIEKTISKAKGQPREPQVYTLPPSQEEMTKNQVSLSCAVKGFYPSDIAVEWESNGQPENNYKTTPPVLDSDGSFFLVSRLTVDKSRWQEGNVFSCSVMHEALHNHYTQKSLSLSLG
chain: ESKYGPPCPPCPAPEAAGGPSVFLFPPKPKDTLMISRTPEVTCVVVDVSQEDPEVQFNWYVDGVEVHNAKTKPREEQFNSTYRVVSVLTVLHQDWLNGKEYKCKVSNKGLPSSIEKTISKAKGQPREPQVYTLPPSQEEMTKNQVSLWCLVKGFYPSDIAVEWESNGQPENNYKTTPPVLDSDGSFFLYSRLTVDKSRWQEGNVFSCSVMHEALHNHYTQKSLSLSLG
light: DIQMTQSPSSVSASVGDRVTITCRASMDIAGSLAWYQQKPGKAPKLLIYDTSFRATGVPSRFSGSGSGTDFTLTISSLQPEDFANYYCQQYDNPPRLTFGGGTKVEIKRTVAAPSVFIFPPSDEQLKSGTASVVCLLNNFYPREAKVQWKVDNALQSGNSQESVTEQDSKDSTYSLSSTLTLSKADYEKHKVYACEVTHQGLSSPVTKSFNRGEC
notes: monovalent one-arm human IgG4
On to B2, for which the “fold change in Kd, cyno CK against human CK” value (from here on “fold change in Kd, cyno CK”) in [9] was below 2 fold.

B3: Lib1_P1_G3 OA (antibody, human IgG4 S228P, kappa, F234A L235A)
heavy: QVQLVQSGAEVKKPGASVKVSCKVSGYTSRQYIHWVRQAPGKGLEWMGWVTPIFGTTNYAQKFQGRVTMTEDTSTDTAYMELSSLKSEDTAVYYCAREWTGTTAFDIWGQGTLVTVSSASTKGPSVFPLAPCSRSTSESTAALGCLVKDYFPEPVTVSWNSGALTSGVHTFPAVLQSSGLYSLSSVVTVPSSSLGTKTYTCNVDHKPSNTKVDKRVESKYGPPCPPCPAPEAAGGPSVFLFPPKPKDTLMISRTPEVTCVVVDVSQEDPEVQFNWYVDGVEVHNAKTKPREEQFNSTYRVVSVLTVLHQDWLNGKEYKCKVSNKGLPSSIEKTISKAKGQPREPQVYTLPPSQEEMTKNQVSLSCAVKGFYPSDIAVEWESNGQPENNYKTTPPVLDSDGSFFLVSRLTVDKSRWQEGNVFSCSVMHEALHNHYTQKSLSLSLG
chain: ESKYGPPCPPCPAPEAAGGPSVFLFPPKPKDTLMISRTPEVTCVVVDVSQEDPEVQFNWYVDGVEVHNAKTKPREEQFNSTYRVVSVLTVLHQDWLNGKEYKCKVSNKGLPSSIEKTISKAKGQPREPQVYTLPPSQEEMTKNQVSLWCLVKGFYPSDIAVEWESNGQPENNYKTTPPVLDSDGSFFLYSRLTVDKSRWQEGNVFSCSVMHEALHNHYTQKSLSLSLG
light: DIQMTQSPSSVSASVGDRVTITCRASQDIGHYLAWYQQKPGKAPKLLIYAASNRASGVPSRFSGSGSGTDFTLTISSLQPEDFANYYCQQGYSAPYGFGGGTKVEIKRTVAAPSVFIFPPSDEQLKSGTASVVCLLNNFYPREAKVQWKVDNALQSGNSQESVTEQDSKDSTYSLSSTLTLSKADYEKHKVYACEVTHQGLSSPVTKSFNRGEC
notes: monovalent one-arm human IgG4
For the molecule B3, the “fold change in Kd, cyno CK” value in experiment [9] was below 2 fold. Further, the “VWF:FVIII level (% of untreated donor-matched plasma)” value in experiment [10] is above 80%.

B4: Lib1_P1_A9 OA (antibody, human IgG4 S228P, kappa, F234A L235A)
heavy: QVQLVQSGAEVKKPGASVKVSCKVSGDTLSSYGIHWVRQAPGKGLEWMGGSIPSFGTAIYAQKFQGRVTMTEDTSTDTAYMELSSLKSEDTAVYYCTSEGPWLPFFSFDYWGQGTLVTVSSASTKGPSVFPLAPCSRSTSESTAALGCLVKDYFPEPVTVSWNSGALTSGVHTFPAVLQSSGLYSLSSVVTVPSSSLGTKTYTCNVDHKPSNTKVDKRVESKYGPPCPPCPAPEAAGGPSVFLFPPKPKDTLMISRTPEVTCVVVDVSQEDPEVQFNWYVDGVEVHNAKTKPREEQFNSTYRVVSVLTVLHQDWLNGKEYKCKVSNKGLPSSIEKTISKAKGQPREPQVYTLPPSQEEMTKNQVSLSCAVKGFYPSDIAVEWESNGQPENNYKTTPPVLDSDGSFFLVSRLTVDKSRWQEGNVFSCSVMHEALHNHYTQKSLSLSLG
chain: ESKYGPPCPPCPAPEAAGGPSVFLFPPKPKDTLMISRTPEVTCVVVDVSQEDPEVQFNWYVDGVEVHNAKTKPREEQFNSTYRVVSVLTVLHQDWLNGKEYKCKVSNKGLPSSIEKTISKAKGQPREPQVYTLPPSQEEMTKNQVSLWCLVKGFYPSDIAVEWESNGQPENNYKTTPPVLDSDGSFFLYSRLTVDKSRWQEGNVFSCSVMHEALHNHYTQKSLSLSLG
light: DIQMTQSPSSVSASVGDRVTITCRASQGISRNLAWYQQKPGKAPKLLIYKASSLASGVPSRFSGSGSGTDFTLTISSLQPEDFANYYCQQSFSTPVTFGGGTKVEIKRTVAAPSVFIFPPSDEQLKSGTASVVCLLNNFYPREAKVQWKVDNALQSGNSQESVTEQDSKDSTYSLSSTLTLSKADYEKHKVYACEVTHQGLSSPVTKSFNRGEC
notes: also called monovalent (one-arm) Lib1_P1_A9
B4: the “fold change in Kd, cyno CK” value in experiment [9] is below 2 fold. For the same molecule, in [10], the “VWF:FVIII level (% of untreated donor-matched plasma)” value is above 80%.

The values above are taken from patent US20250154283A1 (published 2025).
